Measurements taken from PMC4823748, “Production of FAME biodiesel in E. coli by direct methylation with an insect enzyme” (Scientific Reports, 2016).

Substrate: CCCCCCCCCCCC(=O)O
Experiment: MTAN/LuxS-coupled DTNB colorimetric methyltransferase assay
Type: biochemical, Drosophila melanogaster
Conditions: 500 μM SAM, 50 mM potassium phosphate pH 8.0, 30 °C, 3 μM enzyme, 5–200 μM lauric acid

B1: DmJHAMT (Drosophila melanogaster) (protein)
chain: MNQASLYQHANQVQRHDAKLILDEFASTMQWRSDGEDALLDVGSGSGNVLMDFVKPLLPIRGQLVGTDISSQMVHYASKHYQREERTRFQVLDIGCERLPEELSGRFDHVTSFYCLHWVQNLKGALGNIYNLLKPEGGDCLLAFLASNPVYEVYKILKTNDKWSTFMQDVENFISPLHYSLSPGEEFSQLLNDVGFVQHNVEIRNEVFVYEGVRTLKDNVKAICPFLERMPADLHEQFLDDFIDIVISMNLQQGENNEDQKFLSPYKLVVAYARKTPEFVNNVFLEPTHQNLVKGIN
notes: primers encode N-terminus MNQASLYQH and C-terminus QNLVKGIN-stop
Km: 59 µM | kcat: 0.0025 s⁻¹
